Measurements reported in publication PMC3058826 (Nature, 2010).
Substitutions are numbered along the chain they refer to.

Columns and labels:
[1] = target: T1, TRIM24 PHD-Bromo (F979A/N980A) (Homo sapiens, UniProt O15164, F979A/N980A); assay: ITC binding of histone peptides
T1 sequence (O15164 824-1006 F979A/N980A): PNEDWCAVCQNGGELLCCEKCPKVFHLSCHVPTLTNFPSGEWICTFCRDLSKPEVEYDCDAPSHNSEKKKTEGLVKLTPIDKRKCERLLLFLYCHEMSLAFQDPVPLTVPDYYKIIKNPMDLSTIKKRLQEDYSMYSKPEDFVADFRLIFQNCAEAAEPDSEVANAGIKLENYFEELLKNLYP

[2] = target: T2, TRIM24 PHD-Bromo (WT) (Homo sapiens, UniProt O15164); assay: ITC binding of histone peptides; conditions: PHD-Bromo (bromodomain binding)
T2 sequence (O15164 824-1006): T1 sequence (O15164 824-1006 F979A/N980A) with A156F, A157N

[3] = test system: TRIM24, GREB1 distal ERE, MCF7 cells; assay: ChIP of TRIM24 at GREB1 ERE's; type: cell-based; conditions: 10 nM estradiol, six hours
[4] = test system: ERα, GREB1 distal ERE, MCF7 cells; assay: ChIP of ERα at GREB1 ERE's; type: cell-based; conditions: 10 nM estradiol, six hours

Compound: H3(13-32)K23ac: H3(13–32) peptide bearing acetylated K23; ITC values are those of the -Bio form
- binding affinity in words [1]: loses most of the binding affinity

Compound: H3(13-32)K27ac: H3(13–32) peptide, K27ac; ITC values are those of the -Bio form
- binding affinity in words [2]: weak binding affinity

Compound: C[C@]12CC[C@@H]3c4ccc(O)cc4CC[C@H]3[C@@H]1CC[C@@H]2O [estradiol]
- increase of TRIM24 binding [3]: 6 fold
- increase of ERα binding [4]: 7 fold
